Measured values reported in US12668636B2, “Pharmaceutical combinations” (BERLIN-CHEMIE AG, priority 2017, dated 2026).

How the values were obtained:
[1] = molecular target: T1, LY75 on COLO205 cells (Homo sapiens, UniProt O60449); test: Competitive FACS binding analysis; details: blocking antibody from 250 nM, 3 fold serial dilution, conjugate 1 nM (FIG. 5b)
T1 construct: COLO205 cells (ATCC, catalog #CCL-222) were detached from tissue culture flasks; host or cells: COLO205
Protocol: COLO205 cells (ATCC, catalog #CCL-222) were detached from tissue culture flasks with Cell Stripper (Cellgro, catalog #MT-25-056CI). Cells were washed and resuspended in FACS buffer (PBS+2% FBS), neutralized with growth media, and counted. Cells were plated at 50,000 cells per well in a V Bottom 96-well plate. Cells were washed once with FACS buffer (PBS (Fisher, catalog #SH30028-03)+2% FBS). An anti-LY75-mAb (Selected from Example 1) or LY75_A1 was added to wells starting at 250 nM and diluted serially 3 fold and applied to the relevant wells for 45 minutes on ice. Test wells that required single or multiple staining steps were left in FACS buffer as appropriate to ensure the final staining was completed simultaneously for all conditions tested. Two wells were left unstained in FACS buffer as controls.
After the incubation with blocking antibody, cells were washed twice in FACS buffer. The cells were resuspended in FACS buffer containing the anti-LY75-mAb conjugated to MCC-DM1 (1 nM) and incubated on ice for 45 minutes. The cells were washed as above and resuspended in FACS buffer plus 1 ug/ml mouse anti-maytansine antibody and incubated in ice for 45 minutes. […] Mean fluorescence intensity of each sample was determined using a Guava EasyCyte Plus HT Flow Cytometer (96 well plate formats) and the raw data was analyzed using the Guava Cytosoft.

[2] = molecular target: T2, LY75 (Homo sapiens, UniProt O60449); test: Immunohistochemistry using monoclonal antibody to LY75; details: FFPE Triple Negative breast cancer samples
T2 construct: from tissue; host or cells: FFPE triple negative breast cancer sections
Protocol: FFPE slides were deparaffinised in xylene (2×3 minutes) then rehydrated through 1:1 xylene: 100% ethanol (1×3 minutes), 100% ethanol (2×3 minutes), 95% ethanol (1×3 minutes), 70% ethanol (1×3 minutes), 50% ethanol (1×3 minutes), and tap water (1×3 minutes).
The LY75 antigen was retrieved using microwave heat, high power until boiling then low power for 10 minutes in 50 mL 1× citrate buffer in a Coplin jar. Slides were then left to cool to room temperature for a further 15 min, then washed in tap water, 3 minutes. Circles were drawn around each tissue section/TMA with a hydrophobic barrier pen and slides were then washed 3 times in PBS, 3 minutes each wash.
The primary anti-LY75 antibody was diluted in serum free protein block (SFPB) to obtain a solution with a concentration 20-fold greater than the final desired concentration (20 μg/mL for 1 μg/mL final). The secondary antibody, goat anti-human immunoglobulin G (IgG) antigen-binding fragment (Fab), was prepared similarly in SFPB to create a solution of equal concentration.
Equal volumes of primary and secondary antibodies were combined in a labelled tube, gently mixed, and incubated for 3 minutes at room temperature, resulting in a primary antibody concentration 10-fold greater than the desired final concentration (10 μg/mL for 1 μg/mL final). […]

[3] = tested on: Contiguous 8mer peptides of LY75 protein; test: Peptide microarray epitope characterization; format: binding; details: 1 μg/mL LY75_A1, scale 1-65535
Protocol: The peptide microarray analysis was performed by LC Sciences, Houston TX, in brief the method comprised the following steps:—Contiguous 8mer peptides of LY75 protein having one amino acid overlap spanning residues 216 to 1666 of the full length LY75 protein were synthesized and immobilized on a microarray chip. The chip comprised three panels such that the experiment was performed in triplicate. The microarray was addressed with LY75_A1 to identify the peptides to which the antibody bound. The binding assay was performed under the following conditions:—
The microarray comprising the contiguous peptides in triplicate was washed with 1 mL of binding buffer at 4° C. for 20 min. It was then incubated with 1 μg/mL LY75_A1 in binding buffer (pH 7.0) at 4° C. for 2 hrs. The array was again washed with 0.5 mL of washing buffer at 4° C. for 30 min then incubated with 25 ng/ml anti-human IgG Alexa 647 conjugate in binding buffer (pH 7.0) at 4° C. for 1 hr. The array was again washed with 0.5 mL of washing buffer at 4° C. for 30 min. The array was then Scanned at 635 nm and PMT 500 and the signal Intensity was recorded. The peptide was classed as detectable if it was present in at least ⅔ legal duplicates. The average signal intensity of the replicates was reported as the final signal intensity. Results

T2 sequence (O60449 28-1722): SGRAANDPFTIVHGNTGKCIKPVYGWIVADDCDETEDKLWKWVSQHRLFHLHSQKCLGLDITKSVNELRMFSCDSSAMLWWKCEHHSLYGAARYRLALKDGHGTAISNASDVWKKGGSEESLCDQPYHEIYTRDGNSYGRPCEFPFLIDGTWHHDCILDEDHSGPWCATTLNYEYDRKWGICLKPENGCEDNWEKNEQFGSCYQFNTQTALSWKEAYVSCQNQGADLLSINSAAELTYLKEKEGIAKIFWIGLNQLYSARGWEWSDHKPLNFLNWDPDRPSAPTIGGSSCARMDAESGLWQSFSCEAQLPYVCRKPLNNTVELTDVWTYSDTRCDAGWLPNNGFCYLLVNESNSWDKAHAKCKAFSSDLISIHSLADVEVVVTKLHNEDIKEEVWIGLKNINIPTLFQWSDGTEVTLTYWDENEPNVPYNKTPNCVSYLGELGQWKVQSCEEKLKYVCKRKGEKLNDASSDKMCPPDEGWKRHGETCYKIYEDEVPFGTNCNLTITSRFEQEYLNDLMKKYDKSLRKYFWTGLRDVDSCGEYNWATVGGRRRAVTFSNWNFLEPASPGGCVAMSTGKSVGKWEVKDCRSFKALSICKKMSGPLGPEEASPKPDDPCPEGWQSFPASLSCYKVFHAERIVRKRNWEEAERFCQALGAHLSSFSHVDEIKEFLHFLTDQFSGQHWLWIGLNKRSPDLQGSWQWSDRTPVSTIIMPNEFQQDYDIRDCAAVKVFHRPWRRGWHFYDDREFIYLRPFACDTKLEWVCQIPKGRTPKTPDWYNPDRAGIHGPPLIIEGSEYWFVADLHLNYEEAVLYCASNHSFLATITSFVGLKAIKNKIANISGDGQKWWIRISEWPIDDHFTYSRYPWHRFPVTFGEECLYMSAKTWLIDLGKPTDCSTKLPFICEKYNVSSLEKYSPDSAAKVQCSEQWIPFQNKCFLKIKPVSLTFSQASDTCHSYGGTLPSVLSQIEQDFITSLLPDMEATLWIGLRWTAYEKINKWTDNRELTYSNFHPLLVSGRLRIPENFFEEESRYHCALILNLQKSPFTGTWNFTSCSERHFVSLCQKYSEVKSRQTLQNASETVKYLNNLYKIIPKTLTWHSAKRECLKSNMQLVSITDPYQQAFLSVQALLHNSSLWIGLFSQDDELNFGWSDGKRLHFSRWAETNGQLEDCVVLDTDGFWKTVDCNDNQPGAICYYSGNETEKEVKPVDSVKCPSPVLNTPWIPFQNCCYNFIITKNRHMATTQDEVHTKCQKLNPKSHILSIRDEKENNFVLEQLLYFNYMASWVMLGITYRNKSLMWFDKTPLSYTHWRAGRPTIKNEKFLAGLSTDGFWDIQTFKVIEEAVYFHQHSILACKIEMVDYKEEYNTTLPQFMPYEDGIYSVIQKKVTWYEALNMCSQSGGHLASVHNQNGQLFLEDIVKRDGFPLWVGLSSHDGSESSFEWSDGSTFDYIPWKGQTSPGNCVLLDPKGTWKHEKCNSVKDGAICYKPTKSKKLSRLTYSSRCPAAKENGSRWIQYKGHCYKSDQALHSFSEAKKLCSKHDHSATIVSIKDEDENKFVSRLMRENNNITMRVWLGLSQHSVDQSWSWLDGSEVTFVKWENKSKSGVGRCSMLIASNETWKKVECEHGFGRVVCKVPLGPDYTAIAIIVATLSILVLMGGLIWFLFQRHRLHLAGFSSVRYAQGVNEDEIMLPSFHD
T1 sequence (O60449 28-1722): as above

B1: LY75_A1: anti-LY75 human monoclonal antibody; VH SEQ ID NO:1, VL SEQ ID NO:2 (antibody, listed as Homo sapiens, V domains shown)
VH: EVQLVESGGGLVKPGGSLRLSCAASGFTYSNAWMSWVRQAPGKGLEWVGRIKSKTDGGTTDYAAPVQGRFTISRDDSKNTLYLQMNSLKTEDTAVYYCTIFGVVSFDYWGQGTLVTVSS
VL: DVQMTQSPSSLSASVGDRVTITCRASQSISDYLSWYQQRPGKAPNLLIYAASNLKTGVPSRFSGSGSGTDFTLTISTLQPEDFATYYCQQSYRSPWTFGQGTKVEIKR
[1]
  blocking of binding of anti-LY75-mAb-MCC-DM1: unable to block binding of anti-LY75-mAb-MCC-DM1
[2]
  sections exhibiting robust (+++) staining: 55%
  sections showing positive staining: 77%
[3]
  average signal for all spots on the array: about 885
[3]; background cut off 3000
  maximum signal seen for binding: 25000
